T1: BMP2 (Homo sapiens, UniProt P12643)
T1 sequence (P12643 283-396): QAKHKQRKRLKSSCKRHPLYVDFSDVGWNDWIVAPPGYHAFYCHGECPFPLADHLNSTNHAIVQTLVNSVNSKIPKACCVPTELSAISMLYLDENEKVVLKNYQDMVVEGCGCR

T2: BMP6 (Homo sapiens, UniProt P22004)
T2 sequence (P22004 375-513): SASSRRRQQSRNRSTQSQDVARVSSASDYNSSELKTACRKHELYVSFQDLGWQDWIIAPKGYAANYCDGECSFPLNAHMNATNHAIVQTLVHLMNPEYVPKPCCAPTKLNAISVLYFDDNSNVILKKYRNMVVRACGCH

T3: BMP5 (Homo sapiens, UniProt P22003)
T3 sequence (P22003 317-454): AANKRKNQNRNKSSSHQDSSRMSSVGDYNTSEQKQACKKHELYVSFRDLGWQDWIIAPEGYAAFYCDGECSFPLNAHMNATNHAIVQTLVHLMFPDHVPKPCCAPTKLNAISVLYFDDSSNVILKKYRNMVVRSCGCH

T4: BMP7 (Homo sapiens, UniProt P18075)
T4 sequence (P18075 293-431): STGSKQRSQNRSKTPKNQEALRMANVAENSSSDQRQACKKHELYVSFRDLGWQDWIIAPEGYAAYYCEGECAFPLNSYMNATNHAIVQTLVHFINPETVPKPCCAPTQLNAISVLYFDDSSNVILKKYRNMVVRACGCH

T5: BMP4 (Homo sapiens, UniProt P12644)
T5 sequence (P12644 293-408): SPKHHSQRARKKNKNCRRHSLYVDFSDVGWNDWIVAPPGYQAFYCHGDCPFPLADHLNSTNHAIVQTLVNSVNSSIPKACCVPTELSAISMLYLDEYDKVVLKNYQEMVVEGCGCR


Legend:
BMP2 = biological target: T1, BMP2; assay: Surface plasmon resonance (SPR), BMPs injected over VHH-coated chip; design: ka (BMP2): unit not given here; conditions: molecule coupled to chip, —: No binding detected
Experimental: In a first set of experiments, controls and VHHs (either as monomers or dimers) were coupled to SPR chips and the measurement of BMP affinities was obtained by injecting the different BMPs to the plate.
(§1) Serial dilutions (2.0-10 μg/ml) of purified VHHs were spotted on an amine-specific SensEye gold-film gel-type SPRchip (Ssens), using a Continuous Flow Microspotter (Wasatch Microfluidics, Salt Lake City, Utah, United States) as described (Lokate et al., 2007). BMP binding was analyzed on an IBIS MX96 (IBIS Technologies, Enschede, The Netherlands) instrument by performing injections with dilution series (0.05-2.0 μg/ml) of recombinant BMPs on the VHH-coated chip. In each injection, BMPs were injected and incubated for 8 min, followed by 15 min thorough washing with binding buffer (PBS+0.05% Tween20+0.05% sodium azide) to measure dissociation. Epitope binning was done by injecting VHH dilutions (2.0 μg/ml) over the chip, immediately after the dissociation step. Injections with blank binding buffer were used as reference. After each concatenated injection, the chip was regenerated with 10 mM glycine-HCl, pH 2.0. Experimental data were processed with SPRintX software (IBIS Technologies) and kinetic parameters were determined using Scrubber2 software (BioLogic Software, Campbell, ACT, Australia). Binding constants were obtained by global fitting to a one-site binding model.

BMP6 [1] = biological target: T2, BMP6; assay: as above; conditions: molecule coupled to chip; unit inferred; — not defined there (Table 1: No binding detected)
Experimental: (§2) To confirm their BMP specificities and to elucidate their binding affinities, our VHHs were subjected to surface plasmon resonance (SPR) analysis. In a first set of experiments, controls and VHHs (either as monomers or dimers) were coupled to SPR chips and the measurement of BMP affinities was obtained by injecting the different BMPs to the plate.
as §1

BMP6 [2] = biological target: T2, BMP6; assay: BMP activity luciferase reporter assay (BRE-luciferase, ID1 promoter) in C2C12 cells; type: cell-based, mouse
Experimental: One of the most studied BMP target genes is the Inhibitor of Differentiation 1 (ID1). This is an immediate early gene that is activated by binding of the phosphorylated SMADs to its promoter region (López-Rovira et al., 2002). Thus, we employed the BMP-responsive C2C12 cells, which are stably transfected with the BRE-luciferase vector containing the BMP-Responsive-Element (the mouse ID1 promoter) cloned into the pGL3 luciferase vector (Zilberberg 2007). […] C2C12 cells were treated with the different BMPs with or without our VHHs or human Noggin at a concentration of 5 μg/ml. Luciferase activity was measured after 16 hours incubation. Most of the transcriptional data is in concordance with the results obtained with the phosphorylation of SMAD1/5/8.
C2C12 cells were plated in 96-well plates at 5×10^3 cells/well and cells were allowed to attach overnight. 100 μl of DMEM with 0.1% BSA were added in each well. VHH antibodies and human Fc-Noggin at the indicated concentrations were added at the same time. Wells with unstimulated cells were added as controls. Cells were treated in triplicate with the BMPs at the indicated concentrations for 16 hours. Luciferase activity was measured by adding 100 μl of luciferase substrate solution from the Bright-Glo™ Luciferase Assay System (Promega Benelux, Leiden, The Netherlands). After 3 minutes of incubation, luciferase activity was measured with Synergy HT Multi-Mode Microplate Reader (Biotek, Winooski, Vt., United States). Luciferase values were normalized to background activity (activity of wells with no cells) and represented as ratio to the activity of BMP-stimulated cells.
C2C12 cells were cultured in 96-well plates at 5×10^3 cells/well. […]

BMP5 = biological target: T3, BMP5; assay: Surface plasmon resonance (SPR), BMPs injected over VHH-coated chip; type: binding; conditions: molecule coupled to chip; unit inferred
Experimental: as §2, §1

BMP7 = biological target: T4, BMP7; assay: as above; type: binding; conditions: for Kd: molecule coupled to chip, unit inferred, — not defined there (Table 1: No binding detected)
Experimental: as §2, §1

BMP4 = biological target: T5, BMP4; assay: as above; type: binding; design: purchased R&D systems; ka (BMP4): unit not given here; conditions: molecule coupled to chip
Experimental: as §2, §1

| Molecule | kd (BMP2) (BMP2) | Kd (BMP6 [1]) [nM] | inhibition of BMP-6 signals, comparison of inhibitors (BMP6 [2]; 50 ng/ml hBMP6, 16 h, 500 ng/ml) | Kd (BMP5) [nM] | Kd (BMP7) [nM] | kd (BMP4) (BMP4) | ka (BMP2) (BMP2) | inhibition of BMP6-mediated transcriptional activation by dimers (BMP6 [2]; BMP6 50 ng/ml, 16 hours, increasing concentrations) | unspecific binding of dimers to BMP7 (SPR, in words) (BMP7; in contrast to the functional results) | ka (BMP4) (BMP4) |
| --- | --- | --- | --- | --- | --- | --- | --- | --- | --- | --- |
| hNoggin (protein) QHYLHIRPAPSDNLPLVDLIEHPDPIFDPKEKDLNETLLRSLLGGHYDPGFMATSPPEDRPGGGGGAAGGAEDLAELDQLLRQRPSGAMPSEIKGLEFSEGLAQGKKQRLSKKLRRKLQMWLWSQTFCPVLYAWNDLGSRFWPRYVKVGSCFSKRSCSVPEGMVCKPSKSVHLTVLRWRCQRRGGQRCGWIPIQYPIISECKCSC | 16.2 10^−5 sec^−1 | 50 | inhibited | 68 | 80 | 3.9 10^−5 sec^−1 | – | – | – | – |
| C8E7: E7 linked to C8, hetero-dimer VHH bihead (protein) EVQLVESGGGLVQAGGSLRLSCAASGRTFRINDMGWYRQAPGKSRDMVARITSGGNTNYADSVKGRFTISRDNAKNTVYLQMNSLKPEDTAVYYCNADGLRFDSTRYRPFDSWGQGTQVTVSSGGGGSGGGGSEVQLVESGGGLVQAGGSLRLSCAASGSIRGFVAMAWYRQAPGKQREWVATVTNGGTLYGDSVKGRFTGSRDNAKNTVYLQMNSLKPEDTAVYYCALRQIGASGYDYWGQGTQVTVSS | 10.7 10^−5 sec^−1 | 50 | – | 95 | 31 | 3.4 10^−5 sec^−1 | 19.4 | unable to impair | shown to bind | 34.6 |

Source: patent US10280218B2, “Antibodies binding to BMP4, and uses thereof” (ACADEMISCH MEDISCH CENTRUM, priority 2014, dated 2019)
